Laboratory results reported in the supplement of paper PMC7877785.
± gives the uncertainty stated by the source.

Assay: self-splicing fitness, log relative to wild type (ln ratio); higher = more splicing; Tetrahymena group I intron in knt gene, E. coli kanamycin selection, DiMSum; sequences stand for … in CUCUCU…GGAGGGAAAAGUUAUCAGGCAUGCACCUGGUAGCUAGUCUUUAAACCAAUAGAUUGCAUCGGUUUAAAAGGCAAGACCGUCAAAUUGCGGGAAAGGGGUCAACAGCCGUUCAGUACCAAGUCUCAGGGGAAACUUUGAGAUGGCCUUGCAAAGGGUAUGGUAAUAAGCUGACGGACAUGGUCCUAACCACGCAGCCAAGUCCUAAGUCAACAGAUCUUCUGUUGAUAUGGAUGCAGUUCACAGACUAAAUGUCGGUCGGGGAAGAUGUAUUCUUCUCAUAAGAUAUAGUCGGACCUCUCCUUAAUGGGAGCUAGCGGAUGAAGUGAUGCAACACUGGAGCCGCUGGGAACUAAUUUGUAUGCGAAAGUAUAUUGAUUAGUUUUGGAGUACUCGUGGUCG
Outline: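 The eight P1ex-region nucleotides of an intron in the knt kanamycin-resistance gene on pET-22b(+) were all randomised and the library put into E. coli BL21(DE3). Six replicate transformations were grown overnight at 37°C or 30°C on LB agar with or without 25 μg/mL kanamycin, together with 100 μg/mL carbenicillin, 50 μM IPTG and 0.2% rhamnose. Colonies were pooled and amplicon-sequenced on an Illumina HiSeq 2500. Fitness from DiMSum is the error-weighted combination of wild-type-normalised replicate fold changes, kanamycin over none.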

Sequence	self-splicing fitness (ln) (30 °C)	self-splicing fitness (ln) (37 °C)
GACCAGCAAUAUUACGGACG	0.108 ± 0.075	0.272 ± 0.094
GACCAGCAAUAUUACGGCGU	0.046 ± 0.071	0.319 ± 0.087
GACCAGCAAUAUUACGUAGU	-0.667 ± 0.061	-0.248 ± 0.077
GACCAGCAAUAUUACGUCAA	-2.51 ± 0.18	-1.06 ± 0.1
GACCAGCAAUAUUACGUCGA	-1.44 ± 0.078	-0.592 ± 0.078
GACCAGCAAUAUUACGUCGG	-2.79 ± 0.21	-1.98 ± 0.28
GACCAGCAAUAUUACGUGCC	-0.32 ± 0.11	-0.217 ± 0.13
GACCAGCAAUAUUACGUGCU	-2.85 ± 0.12	-2.63 ± 0.21
GACGAGCAAUAUUACGAAGU	-3.26 ± 0.22	-2.57 ± 0.26
GACGAGCAAUAUUACGAUCA	-2.22 ± 0.36	-0.86 ± 0.23
GACGAGCAAUAUUACGCCGC	-2.06 ± 0.16	-1.72 ± 0.38
GACGAGCAAUAUUACGCGUA	-1.82 ± 0.12	-1.95 ± 0.098
GACGAGCAAUAUUACGCUAA	-2.64 ± 0.35	-2.25 ± 0.31
GACGAGCAAUAUUACGCUCG	-1.59 ± 0.35	-1.6 ± 0.33
GACGAGCAAUAUUACGGAAU	-3.93 ± 0.28	-0.331 ± 0.16
GACGAGCAAUAUUACGGCUA	-0.73 ± 0.11	-0.653 ± 0.11
GACGAGCAAUAUUACGUAGG	-3.47 ± 0.25	-2.12 ± 0.22
GACGAGCAAUAUUACGUCGA	-1.82 ± 0.23	–
GACGAGCAAUAUUACGUGCA	-3.06 ± 0.17	-0.901 ± 0.16
GACGAGCAAUAUUACGUUAA	-3.77 ± 0.27	-2.79 ± 0.25
GACGAGCAAUAUUACGUUAG	-3.02 ± 0.17	-2.56 ± 0.19
GACUAGCAAUAUUACGACGU	-0.558 ± 0.085	0.328 ± 0.099
GACUAGCAAUAUUACGACUC	-0.54 ± 0.097	0.55 ± 0.14
GACUAGCAAUAUUACGAUGG	-3.49 ± 0.13	-2.24 ± 0.12
GACUAGCAAUAUUACGCACG	-0.535 ± 0.068	0.219 ± 0.085

Sequence	self-splicing fitness (ln) (30 °C)	self-splicing fitness (ln) (37 °C)
GACUAGCAAUAUUACGCAUA	-0.568 ± 0.1	-0.145 ± 0.096
GACUAGCAAUAUUACGCCAA	–	-1.6 ± 0.29
GACUAGCAAUAUUACGCCUC	-0.374 ± 0.14	-1.76 ± 0.16
GACUAGCAAUAUUACGCUAG	-2.44 ± 0.31	-1.16 ± 0.26
GACUAGCAAUAUUACGCUAU	–	-3.22 ± 0.43
GACUAGCAAUAUUACGGAAC	-1.61 ± 0.12	-1.15 ± 0.17
GACUAGCAAUAUUACGGAAU	-2.12 ± 0.12	-1.91 ± 0.14
GACUAGCAAUAUUACGGACC	-1.77 ± 0.38	-0.714 ± 0.39
GACUAGCAAUAUUACGGCUG	-1.04 ± 0.079	-0.193 ± 0.087
GACUAGCAAUAUUACGGGAU	-1.59 ± 0.14	-0.788 ± 0.14
GACUAGCAAUAUUACGGGCC	–	-2.46 ± 0.41
GACUAGCAAUAUUACGUAUA	-1.01 ± 0.11	-0.555 ± 0.13
GACUAGCAAUAUUACGUCAA	-2.55 ± 0.16	-2 ± 0.12
GACUAGCAAUAUUACGUCCU	-1.15 ± 0.2	0.446 ± 0.17
GACUAGCAAUAUUACGUGAU	-1.83 ± 0.078	-0.383 ± 0.087
GACUAGCAAUAUUACGUGGU	-3.39 ± 0.13	-2.73 ± 0.15
GACUAGCAAUAUUACGUUCU	-3.33 ± 0.26	-0.968 ± 0.14
GAGAAGCAAUAUUACGAAGC	-3.21 ± 0.28	-1.65 ± 0.29
GAGAAGCAAUAUUACGACAG	-2.31 ± 0.19	-3.09 ± 0.4
GAGAAGCAAUAUUACGACCA	-1.12 ± 0.18	0.744 ± 0.3
GAGAAGCAAUAUUACGACUG	-0.535 ± 0.062	-0.0404 ± 0.073
GAGAAGCAAUAUUACGAGAU	-4.47 ± 0.42	-2.1 ± 0.22
GAGAAGCAAUAUUACGAGUA	-2.04 ± 0.2	-1.73 ± 0.12
GAGAAGCAAUAUUACGAUAA	-2.02 ± 0.14	-0.42 ± 0.15
GAGAAGCAAUAUUACGCAGC	-3.2 ± 0.38	-1.48 ± 0.26

Sequence	self-splicing fitness (ln) (30 °C)	self-splicing fitness (ln) (37 °C)
GAGAAGCAAUAUUACGCAUU	-2.53 ± 0.12	-2.08 ± 0.17
GAGAAGCAAUAUUACGCCCU	-0.493 ± 0.16	0.146 ± 0.18
GAGAAGCAAUAUUACGCCGG	-2.05 ± 0.44	0.0344 ± 0.4
GAGAAGCAAUAUUACGCGGG	-2.86 ± 0.14	-1.88 ± 0.14
GAGAAGCAAUAUUACGCUGC	-2.78 ± 0.46	-2.26 ± 0.49
GAGAAGCAAUAUUACGGAAU	-3.69 ± 0.25	-1.55 ± 0.2
GAGAAGCAAUAUUACGGAGG	–	-2.47 ± 0.21
GAGAAGCAAUAUUACGGCGG	-1.9 ± 0.12	-1.25 ± 0.15
GAGAAGCAAUAUUACGGUAA	-1.64 ± 0.2	-1.57 ± 0.18
GAGAAGCAAUAUUACGGUGU	-3.57 ± 0.15	-1.58 ± 0.099
GAGAAGCAAUAUUACGUACC	-1.18 ± 0.23	-0.414 ± 0.35
GAGAAGCAAUAUUACGUGAG	-1.32 ± 0.058	-1.57 ± 0.1
GAGAAGCAAUAUUACGUGCC	-0.556 ± 0.11	-0.064 ± 0.11
GAGAAGCAAUAUUACGUGGA	-2.64 ± 0.17	-1.81 ± 0.14
GAGAAGCAAUAUUACGUGUA	-2.8 ± 0.15	-1.41 ± 0.13
GAGAAGCAAUAUUACGUUCG	-1.38 ± 0.072	-0.765 ± 0.095
GAGAAGCAAUAUUACGUUUU	-2.39 ± 0.14	-1.96 ± 0.17
GAGCAGCAAUAUUACGAAGG	–	-2.79 ± 0.34
GAGCAGCAAUAUUACGACAC	-0.81 ± 0.23	-0.627 ± 0.21
GAGCAGCAAUAUUACGACUG	-1.75 ± 0.11	-2.01 ± 0.18
GAGCAGCAAUAUUACGAGAU	-3.68 ± 0.18	-2.64 ± 0.17
GAGCAGCAAUAUUACGAUAG	-3.7 ± 0.29	-3.14 ± 0.24
GAGCAGCAAUAUUACGAUCG	-2.76 ± 0.17	-2.48 ± 0.26
GAGCAGCAAUAUUACGAUUC	-0.868 ± 0.093	-0.29 ± 0.14
GAGCAGCAAUAUUACGCAGA	-3.22 ± 0.21	-0.954 ± 0.1

Sequence	self-splicing fitness (ln) (30 °C)	self-splicing fitness (ln) (37 °C)
GAGCAGCAAUAUUACGCAGG	-2.08 ± 0.13	-2.55 ± 0.19
GAGCAGCAAUAUUACGCGCU	-3.19 ± 0.38	-1.9 ± 0.36
GAGCAGCAAUAUUACGCUUG	-2.4 ± 0.13	-0.209 ± 0.12
GAGCAGCAAUAUUACGGAUG	-3.85 ± 0.25	-1.73 ± 0.15
GAGCAGCAAUAUUACGGGAG	-3.68 ± 0.32	-2.9 ± 0.35
GAGCAGCAAUAUUACGGGGU	-2.96 ± 0.16	-3.18 ± 0.17
GAGCAGCAAUAUUACGGGUG	-4.47 ± 0.22	-2.17 ± 0.15
GAGCAGCAAUAUUACGGUCG	-2 ± 0.17	-2.28 ± 0.17
GAGCAGCAAUAUUACGUAGA	-2.24 ± 0.1	-1.03 ± 0.13
GAGCAGCAAUAUUACGUAGC	-0.99 ± 0.11	-1.65 ± 0.13
GAGCAGCAAUAUUACGUCGC	-2.31 ± 0.14	-1.47 ± 0.15
GAGCAGCAAUAUUACGUUCA	-1.38 ± 0.13	-0.931 ± 0.13
GAGCAGCAAUAUUACGUUCU	–	-2.48 ± 0.26
GAGCAGCAAUAUUACGUUUG	-2.84 ± 0.11	-1.31 ± 0.11
GAGGAGCAAUAUUACGAACA	-2.69 ± 0.23	-2.07 ± 0.16
GAGGAGCAAUAUUACGACGU	-1.37 ± 0.13	-0.0936 ± 0.15
GAGGAGCAAUAUUACGAGCG	-3.24 ± 0.35	-1.55 ± 0.28
GAGGAGCAAUAUUACGAGUA	–	-1.51 ± 0.37
GAGGAGCAAUAUUACGAUAC	-1.9 ± 0.18	-2.05 ± 0.38
GAGGAGCAAUAUUACGAUGA	-2.31 ± 0.24	-1.42 ± 0.35
GAGGAGCAAUAUUACGAUGG	-3.58 ± 0.2	-2.44 ± 0.22
GAGGAGCAAUAUUACGAUGU	-3.29 ± 0.33	-2.69 ± 0.32
GAGGAGCAAUAUUACGCACU	–	-1.49 ± 0.36
